Test results reported in article PMC3166142, “Direct Inhibition of TNF-α Promoter Activity by Fanconi Anemia Protein FANCD2”.

Biological target: FANCD2 (Homo sapiens, UniProt Q9BXW9 1-1451)
Assay: EMSA; 200 ng protein; 20 mM HEPES pH 7.6, 5 mM EDTA, 1 mM DTT, 150 mM KCl, 50 mM (NH4)2SO4, 1% Tween-20; 20 min, room temperature; native 4% PAGE
Conditions: protein: recombinant; tags: His6 removed by thrombin; label: 32P; blunt (duplex implied; only one strand printed for EMSA)

FANCD2, sequence (Q9BXW9 whole entry): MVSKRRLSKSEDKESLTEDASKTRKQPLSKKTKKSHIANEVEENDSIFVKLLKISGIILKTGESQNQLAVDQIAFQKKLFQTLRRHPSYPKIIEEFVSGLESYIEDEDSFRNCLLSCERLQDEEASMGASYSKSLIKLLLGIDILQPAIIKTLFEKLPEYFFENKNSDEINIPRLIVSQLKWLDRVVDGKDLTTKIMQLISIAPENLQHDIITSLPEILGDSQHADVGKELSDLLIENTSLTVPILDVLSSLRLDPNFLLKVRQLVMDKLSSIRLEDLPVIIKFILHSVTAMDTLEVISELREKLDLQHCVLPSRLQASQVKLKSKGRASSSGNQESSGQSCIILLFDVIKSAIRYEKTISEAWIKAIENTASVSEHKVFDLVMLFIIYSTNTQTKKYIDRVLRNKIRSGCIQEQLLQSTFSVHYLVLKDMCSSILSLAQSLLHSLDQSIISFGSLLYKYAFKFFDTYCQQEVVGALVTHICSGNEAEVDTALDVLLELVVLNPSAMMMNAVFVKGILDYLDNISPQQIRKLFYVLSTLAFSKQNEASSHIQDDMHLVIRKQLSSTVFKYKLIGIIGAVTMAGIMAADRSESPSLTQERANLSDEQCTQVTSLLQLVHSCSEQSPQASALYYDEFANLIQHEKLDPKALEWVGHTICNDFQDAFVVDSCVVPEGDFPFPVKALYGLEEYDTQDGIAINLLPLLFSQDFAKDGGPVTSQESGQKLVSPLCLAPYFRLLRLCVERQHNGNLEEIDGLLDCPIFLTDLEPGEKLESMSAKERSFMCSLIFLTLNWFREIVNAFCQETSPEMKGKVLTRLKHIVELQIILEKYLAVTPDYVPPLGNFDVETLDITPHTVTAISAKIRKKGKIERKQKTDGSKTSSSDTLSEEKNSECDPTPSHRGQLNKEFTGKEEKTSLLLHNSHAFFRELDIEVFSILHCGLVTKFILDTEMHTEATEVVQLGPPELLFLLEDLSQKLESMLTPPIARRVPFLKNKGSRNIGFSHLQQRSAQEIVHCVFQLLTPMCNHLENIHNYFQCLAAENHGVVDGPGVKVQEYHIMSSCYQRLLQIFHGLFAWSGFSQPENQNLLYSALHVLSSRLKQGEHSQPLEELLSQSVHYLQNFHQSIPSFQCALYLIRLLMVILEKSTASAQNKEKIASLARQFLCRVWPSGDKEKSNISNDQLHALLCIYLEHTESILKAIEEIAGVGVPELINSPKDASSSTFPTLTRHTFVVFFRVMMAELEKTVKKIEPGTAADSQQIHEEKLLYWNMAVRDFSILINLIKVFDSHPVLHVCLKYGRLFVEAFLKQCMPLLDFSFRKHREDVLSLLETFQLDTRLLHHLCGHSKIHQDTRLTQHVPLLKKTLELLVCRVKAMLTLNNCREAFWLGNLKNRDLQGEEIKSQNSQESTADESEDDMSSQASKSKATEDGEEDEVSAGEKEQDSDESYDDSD

B1: kB1 (dsDNA)
DNA 1: GAGTATGGGGACCCCCCCTTAA
DNA 2: TTAAGGGGGGGTCCCCATACTC
binding result: binds
